Data taken from paper PMC5893306 (Molecular pharmaceutics, 2018).

Assay: Rat pharmacokinetics, IV and SC
Format: in vivo, Sprague Dawley rats
[1] = Sprague-Dawley, rat, plasma, iv
[2] = Sprague-Dawley, rat, plasma, sc
[3] = rats, IV, compared to PIE12-trimer

SMILES | Vd [1] [L/kg] | clearance [1] [mL/min/kg] | half-life [1] [h] | Tmax [2] [h] | bioavailability [2] [%] | half-life [2] [h] | increase in half-life upon IV or SC dosing (rats, IV or SC, compared to PIE12-trimer) [fold] | reduction of clearance [3] | increase of IV half-life [3] [fold] | extension of apparent half-life upon SC dosing (rats, SC, based on terminal-phase elimination, compared to PIE12-trimer)
CCCCCCCCCCCCCCCCCCSC1CC(=O)N(CCC(=O)NCCOCCOCCOCCOCCOCCOCCOCCOCCOCCOCCOCCOCCOCCOCCOCCOCCOCCOCCOCCOCCOCCOCCOCCOCCC(=O)NC(COCCC(=O)NCCOCCOCCOCCOCCC(=O)NCCCC[C@@H](NC(=O)CNC(=O)[C@@H](CC(C)C)NC(=O)[C@@H](CCC(=O)O)NC(=O)[C@H]2CSSC[C@@H](NC(=O)[C@H]3CCCN3C(=O)[C@@H](Cc3c[nH]cn3)NC(C)=O)C(=O)N[C@H](CC(=O)O)C(=O)N[C@H](Cc3ccc(O)cc3)C(=O)N3CCC[C@@H]3C(=O)N[C@H](CCC(=O)O)C(=O)N[C@H](Cc3c[nH]c4ccccc34)C(=O)N[C@H](CCC(N)=O)C(=O)N[C@H](Cc3c[nH]c4ccccc34)C(=O)N[C@H](CC(C)C)C(=O)N2)C(N)=O)(COCCC(=O)NCCOCCOCCOCCOCCC(=O)NCCCC[C@@H](NC(=O)CNC(=O)[C@@H](CC(C)C)NC(=O)[C@@H](CCC(=O)O)NC(=O)[C@H]2CSSC[C@@H](NC(=O)[C@H]3CCCN3C(=O)[C@@H](Cc3c[nH]cn3)NC(C)=O)C(=O)N[C@H](CC(=O)O)C(=O)N[C@H](Cc3ccc(O)cc3)C(=O)N3CCC[C@@H]3C(=O)N[C@H](CCC(=O)O)C(=O)N[C@H](Cc3c[nH]c4ccccc34)C(=O)N[C@H](CCC(N)=O)C(=O)N[C@H](Cc3c[nH]c4ccccc34)C(=O)N[C@H](CC(C)C)C(=O)N2)C(N)=O)COCCC(=O)NCCOCCOCCOCCOCCC(=O)NCCCC[C@@H](NC(=O)CNC(=O)[C@@H](CC(C)C)NC(=O)[C@@H](CCC(=O)O)NC(=O)[C@H]2CSSC[C@@H](NC(=O)[C@H]3CCCN3C(=O)[C@@H](Cc3c[nH]cn3)NC(C)=O)C(=O)N[C@H](CC(=O)O)C(=O)N[C@H](Cc3ccc(O)cc3)C(=O)N3CCC[C@@H]3C(=O)N[C@H](CCC(=O)O)C(=O)N[C@H](Cc3c[nH]c4ccccc34)C(=O)N[C@H](CCC(N)=O)C(=O)N[C@H](Cc3c[nH]c4ccccc34)C(=O)N[C@H](CC(C)C)C(=O)N2)C(N)=O)C1=O (some centres unmarked) [C18-PIE12-trimer] | 0.227 | 2.5 | 1.1 | 2 | 94 | 1.4 | < 2 | 5-8 fold |  | 
CC(=O)N[C@H](Cc1c[nH]cn1)C(=O)N1CCC[C@@H]1C(=O)N[C@@H]1CSSC[C@H](C(=O)N[C@H](CCC(=O)O)C(=O)N[C@H](CC(C)C)C(=O)NCC(=O)N[C@H](CCCCNC(=O)CCOCCOCCOCCOCCNC(=O)CCOCC(C)(COCCC(=O)NCCOCCOCCOCCOCCC(=O)NCCCC[C@@H](NC(=O)CNC(=O)[C@@H](CC(C)C)NC(=O)[C@@H](CCC(=O)O)NC(=O)[C@H]2CSSC[C@@H](NC(=O)[C@H]3CCCN3C(=O)[C@@H](Cc3c[nH]cn3)NC(C)=O)C(=O)N[C@H](CC(=O)O)C(=O)N[C@H](Cc3ccc(O)cc3)C(=O)N3CCC[C@@H]3C(=O)N[C@H](CCC(=O)O)C(=O)N[C@H](Cc3c[nH]c4ccccc34)C(=O)N[C@H](CCC(N)=O)C(=O)N[C@H](Cc3c[nH]c4ccccc34)C(=O)N[C@H](CC(C)C)C(=O)N2)C(N)=O)COCCC(=O)NCCOCCOCCOCCOCCC(=O)NCCCC[C@@H](NC(=O)CNC(=O)[C@@H](CC(C)C)NC(=O)[C@@H](CCC(=O)O)NC(=O)[C@H]2CSSC[C@@H](NC(=O)[C@H]3CCCN3C(=O)[C@@H](Cc3c[nH]cn3)NC(C)=O)C(=O)N[C@H](CC(=O)O)C(=O)N[C@H](Cc3ccc(O)cc3)C(=O)N3CCC[C@@H]3C(=O)N[C@H](CCC(=O)O)C(=O)N[C@H](Cc3c[nH]c4ccccc34)C(=O)N[C@H](CCC(N)=O)C(=O)N[C@H](Cc3c[nH]c4ccccc34)C(=O)N[C@H](CC(C)C)C(=O)N2)C(N)=O)C(N)=O)NC(=O)[C@@H](CC(C)C)NC(=O)[C@@H](Cc2c[nH]c3ccccc23)NC(=O)[C@@H](CCC(N)=O)NC(=O)[C@@H](Cc2c[nH]c3ccccc23)NC(=O)[C@@H](CCC(=O)O)NC(=O)[C@H]2CCCN2C(=O)[C@@H](Cc2ccc(O)cc2)NC(=O)[C@@H](CC(=O)O)NC1=O [PIE12-trimer] | 0.704 | 13.9 | 0.6 | 0.5 |  | 0.8 |  |  |  | 
CCCCCCCCCCCCCCCC(=O)N[C@H](CSC1CC(=O)N(CCC(=O)NCCOCCOCCOCCOCCOCCOCCOCCOCCOCCOCCOCCOCCOCCOCCOCCOCCOCCOCCOCCOCCOCCOCCOCCOCCC(=O)NC(COCCC(=O)NCCOCCOCCOCCOCCC(=O)NCCCC[C@@H](NC(=O)CNC(=O)[C@@H](CC(C)C)NC(=O)[C@@H](CCC(=O)O)NC(=O)[C@H]2CSSC[C@@H](NC(=O)[C@H]3CCCN3C(=O)[C@@H](Cc3c[nH]cn3)NC(C)=O)C(=O)N[C@H](CC(=O)O)C(=O)N[C@H](Cc3ccc(O)cc3)C(=O)N3CCC[C@@H]3C(=O)N[C@H](CCC(=O)O)C(=O)N[C@H](Cc3c[nH]c4ccccc34)C(=O)N[C@H](CCC(N)=O)C(=O)N[C@H](Cc3c[nH]c4ccccc34)C(=O)N[C@H](CC(C)C)C(=O)N2)C(N)=O)(COCCC(=O)NCCOCCOCCOCCOCCC(=O)NCCCC[C@@H](NC(=O)CNC(=O)[C@@H](CC(C)C)NC(=O)[C@@H](CCC(=O)O)NC(=O)[C@H]2CSSC[C@@H](NC(=O)[C@H]3CCCN3C(=O)[C@@H](Cc3c[nH]cn3)NC(C)=O)C(=O)N[C@H](CC(=O)O)C(=O)N[C@H](Cc3ccc(O)cc3)C(=O)N3CCC[C@@H]3C(=O)N[C@H](CCC(=O)O)C(=O)N[C@H](Cc3c[nH]c4ccccc34)C(=O)N[C@H](CCC(N)=O)C(=O)N[C@H](Cc3c[nH]c4ccccc34)C(=O)N[C@H](CC(C)C)C(=O)N2)C(N)=O)COCCC(=O)NCCOCCOCCOCCOCCC(=O)NCCCC[C@@H](NC(=O)CNC(=O)[C@@H](CC(C)C)NC(=O)[C@@H](CCC(=O)O)NC(=O)[C@H]2CSSC[C@@H](NC(=O)[C@H]3CCCN3C(=O)[C@@H](Cc3c[nH]cn3)NC(C)=O)C(=O)N[C@H](CC(=O)O)C(=O)N[C@H](Cc3ccc(O)cc3)C(=O)N3CCC[C@@H]3C(=O)N[C@H](CCC(=O)O)C(=O)N[C@H](Cc3c[nH]c4ccccc34)C(=O)N[C@H](CCC(N)=O)C(=O)N[C@H](Cc3c[nH]c4ccccc34)C(=O)N[C@H](CC(C)C)C(=O)N2)C(N)=O)C1=O)C(=O)O (some centres unmarked) [Palm-PIE12-trimer] | 0.144 |  | 1.8 | 1 |  | 2.2 |  | 14-18 fold | 3 | ~ 3 fold
